# In the DeepSol protein solubility set:
# Assay: soluble on expression in E. coli; label from the status in PepcDB or PDB records
row,Sequence,soluble on expression in E. coli
1,MAHHHHHHSLKCILLNQAEELPIEFLPKDGVYGKGKLFDSRNMEIENFTESDILQDARRAAEAHRRARYRVQSIVRPGITLLEIVRSIEDSTRTLLKGERNNGIGFPAGMSMNSCAAHYTVNPGEQDIVLKEDDVLKIDFGTHSDGRIMDSAFTVAFKENLEPLLVAAREGTETGIKSLGVDVRVCDIGRDINEVISSYEVEIGGRMWPIRPISDLHGHSISQFRIHGGISIPAVNNRDTTRIKGDSFYAVETFATTGKGSIDDRPPCSHFVLNTYKSRKLFNKDLIKVYEFVKDSLGTLPFSPRHLDYYGLVKGGSLKSVNLLTMMGLLTPYPPLNDIDGCKVAQFEHTVYLSEHGKEVLTRGDDY,not soluble
2,MSLKSGTMVEKLASAKTIAFDKTGTITQGQLSVDQVQPINAGITAAELVGLAASVEQESSHILARSIVAYARKQDVPLKNITDLAEVSGAGVKAFVDGAEIRVGKKNFVTQESQETEKIDKTTIHISRNGTYLGRITFTDTVRPEAKETMEKLHQLHLQRILMLTGDQESVAETIAAEVGITEVHGECLPQDKLTILKELPKENHPVIMVGDGVNDAPSLAAADVGIAMGAHGATAASETADVVILKDDLSKVSQAVEIAQDTMKIAKEGHHHHHH,soluble
3,MNIPMYIVDAFTDRPFAGNPAAVCLLPQPVGDEWMQRVAAEMNLSETAFLVPHEGGYRLRWFTPKAEVDLCGHATLASAHVLWERGERRADEAIAFFTNSGVLTAINNDGWIRLDFPNETPVRVESPPAALVGALPAEPLFIGRNRFDYLVEIGSEQEVRRLTPDFRLLQEVDARGIIVTSRSAAEEMDFVSRAFFPALGVPEDPVTGSAHCCLGPYWADKLGKTTLVGYQASARGGIVRVMVSGERVQLEGKAVTVLKGDLAAEAAFGLQPI,not soluble
4,MRWKKINITINNVEMILVAAIIIDVPPVVDLCVKTMIHNINSTNCIRMFNFSKRYGIKKLYNASMSEIINNITAVTSDPEFGKLSKDELTTILSHENVNVNHEDVTL,not soluble
5,MGVLPKINIVARQFRKCSMAATSTSTSSSDNSVASTAFVQEHVRQMQNDIMVQLIPQDESGAVENLADLNVTSNLGRMTHYYFQQGGKMLRPTVSLLMGNACNSAANRSISEEYLAMLSTERSGIAAHLSVCQNQYKIGMIAEMIHTASLVHDDVIDEANTRRGSASVNAVWGNKMSVLVGDFILARATQILCSIGKPNIISVMASIIEDLVLGEFMQMSTTPTDATPVDRMKAYIEKTHRKTASLFASSCRSAAILADGSDLKLHEIAFEYGRNLGIAFQLADDLLDFIATADEMGKPVAADLKLGLATAPVLYACEQYPELNTMLLRKFKHDGDAEKAREIVVNSDGMDKTRRLIDSYSQKAVEMASSLPNRNESTEHLIKLAMSQSDRKF,not soluble
6,MQSWSRVYCSLAKRGHFNRISHGLQGLSAVPLRTYADQPIDADVTVIGSGPGGYVAAIKAAQLGFKTVCIEKNETLGGTCLNVGCIPSKALLNNSHYYHMAHGTDFASRGIEMSEVRLNLDKMMEQKSTAVKALTGGIAHLFKQNKVVHVNGYGKITGKNQVTATKADGGTQVIDTKNILIATGSEVTPFPGITIDEDTIVSSTGALSLKKVPEKMVVIGAGVIGVELGSVWQRLGADVTAVEFLGHVGGVGIDMEISKNFQRILQKQGFKFKLNTKVTGATKKSDGKIDVSIEAASGGKAEVITCDVLLVCIGRRPFTKNLGLEELGIELDPRGRIPVNTRFQTKIPNIYAIGDVVAGPMLAHKAEDEGIICVEGMAGGAVHIDYNCVPSVIYTHPEVAWVGKSEEQLKEEGIEYKVGKFPFAANSRAKTNADTDGMVKILGQKSTDRVLGAHILGPGAGEMVNEAALALEYGASCEDIARVCHAHPTLSEAFREANLAASFGKSINF,not soluble
7,MGSDKIHHHHHHAEDDRMTPLSADSGDTADELIPIHISLTGDNDYHSSSFNDASTRSHSPLIAEWVGVKAFSPTRTGEQPDYEGPRIASMELTEDTLPRVSTRATVPAGVYFRLIVFRKSGNNYVFQSVADYASNGTGTPVLERGKLLTRSGTIRVVGYSFNTTADLGDMPSTYAYNSSTVSIPDMSKDFMTFDSGDITNVNSLSHNLPVSFSQKLCKLTITISPTGFPSNTITNCTGVYVKQGGNSTSWKIGPSTNVVAANTNNTAAFSPNTTLNTTIRMVPFAGARTITVHFNTLTVGGRTVNNNTEITSTQSVQLKEGKSYTLKIQFKKGPGINVPASNINLTQNGCTENDKTILSKLRWAEGNLNSQSNYNLTWASSTTDYGYYYIWKNVYVSSGYTGYGAVDPCTRLDESIYGSGWRTPTRSEFISLSRCSNKQLVKYNGIQGMWFMNSSTGLFLPAAGYRDGDKGSGTTATAYTNGTGSYYWSSDLNGNSAYGLYILKNDVFVDANGNRKSGVSVRCVHNL,not soluble
8,MGSDKIHHHHHHMSHWFFIINPTAGHRNGLRVWKSIQKELIKRKVEHRSFLTEHPGHAEVLARQISTIQEYKLKRLIVIGGDGTMHEVVNGLKDVDDIELSFVPAGAYNDFSRGFSIKKIDLIQEIKKVKRPLTRTFHLGSVNFLQDKSQILYFMNHIGIGFDAYVNKKAMEFPLRRVFLFLRLRFLVYPLSHLHASATFKPFTLACTTEDETREFHDVWFAVVSNHPFYGGGMKAAPLANPREKTFDIVIVENQPFLKKYWLLCLMAFGKHTKMDGVTMFKAKDITFYTKDKIPFHADGEIMGTTPFRLASSPSPLRIKT,not soluble
9,SDSQSSILEENLEKILRGEGLEFDSVAEQVDPVTLRKNVCYIVGAVIFNSKEEVLMVQEAKRECYGRWYLPAGRMEECESILEALQREVREEAGIDCQPITLLLVQEQGPRWVRFIFLAEETGGSLKTTAEADDESLQAHWWDRKSPLPLRAHDILSLIDAGLKYRRNPWFPVTQPVDFPCHVVCQRLFLTFISSRADADDRLWLLMSNNNTSHHPRLPIVVSFRTYISKAVSKLIEDCMPSSYISVHIRGILGVQHNGRIPGKTDGICFNTLVLLENTEEGAEIGSPPSLETDCYRWQEVTNQGLKAKIIERIKDGSVLPFQSL,soluble
10,MRGSHSGAQGLLAAQKARGLFKDFFPETGTKIELPELFDRGTASFPQTIYCGFDPTADSLHVGHLLALLGLFHLQRAGHNVIALVGGATARLGDPSGRTKEREALETERVRANARALRLGLEALAANHQQLFTDGRSWGSFTVLDNSAWYQKQHLVDFLAAVGGHFRMGTLLSRQSVQLRLKSPEGMSLAEFFYQVLQAYDFYYLFQRYGCRVQLGGSDQLGNIMSGYEFINKLTGEDVFGITVPLITSTTGAKLGKSAGNAVWLNRDKTSPFELYQFFVRQPDDSVERYLKLFTFLPLPEIDHIMQLHVKEPERRGPQKRLAAEVTKLVHGREGLDSAKRCTQALYHRSHHHHHH,soluble
11,YNVLENEELRFQLTIQKEQIEFQRNKYEQLGAAYKNIRSFMHDTKKHLFYIENCVTEKKYDDIIPYSKEIMHDLESRYCTINTGNLVIDAFVSNLLLQTKAQGITLHTNLKFDKATIPVNDYHLTIILGNLLDNALNACRGQIGANIKVAVRTVDGTFTIHVANTYVIADPDKAPDDFEKIDFIHGYGLKNVKDSAEACGGFCVIHHENDVYSATVIIPILNP,not soluble
12,MGSDKIHHHHHHMMNTSTSDPIGAAWLIRYASIELVSPLYITSSIGGRRQTYKEGNVIHNAYQETARPLDTIIAHLQFHMRHEVLNLELLVRLFEQIGADDVQAWVNAEPTGSYARRMAFLYEWLMDKELAVSSNLGGNYVDALDTKKMVTSSPEHIIKNARWRINDNLAGTRHFCPMLVKTEAFTQAAALDIATMVEKLNDEFGQDLLMRASVWMTLRESKASFTIEGEGKELKRIERFAEVMARRTGKGDIPLDPESLAELQQEILGSKTVIQQYGIRQSPVFVSHTQVNGFKEIVHYIAPPSEDIAYKLTGLQALMKKTEGQSALMRSAVASFAFVYIHPLADGNGRVHRFLINDVLRRDQVIHEPIILPISQAIAEHPSDRHAYDKILDRVSVPLMRQIRDHYRFDKQAVTYPDGIRSNLNFADSHLIQPAWRFMDLTPHVQYLSGLIAHVIEKEMHNESQYLRQHDHARLAIKEIVEMPNSYADRIIRSMLQNKGAKSNKLLQDYPFLANEAVWDDVFSVVVEIFK,not soluble
13,MSLHDKQELSSKSNLNNQKGYLDNEGANSNYESKKQSILSELNQLLKQTTNSLKEAKNTTDNLNASNEANKVVEAVINAVNLISSAADQVKSATKNMHDLAQMAEIDLEKIKNSSDKAIFASNLAKEAYSLTKAAEQNMQKLYKEQQKISESESESDYSDSAEIKQAKEAVEIAWKATVEAKDKLIDVENTVKETLDKIKTETTNNTKLADIKEAAELVLQIAKNAKEIVQEVVALLNTEGHHHHHH,soluble
14,MAHHHHHHMLNVVQATRMSKKQEVKAYGPNVKKGDLVYGVVHIFASFNDTFVHVTDMSGRETYVKVTGGMKVKADRDESSPYAAMMAAQDVVARCKECGINALHVKMRAVGGVRTKSPGPGRPGRPPRARPRRDEDWPHRGCHPDPDRLHPPQGFPPWSPPVRSLRPRVLRTAQQSELTLVTICWFPCVCDLLSFYCREEKKHRPQITEAR,not soluble
15,MGSDKIHHHHHHMSEEAFDAIIVGAGLAGCVAAYVLAKEGADVLVIERGNYAGSKNMTGGRLYAHSLERIIPGFAKEAPIERKVTKEKVTFLTDDTGVTLDYHNGRDQSPLQESYTLLRGEFDQWLMGKAEEVGAQFITGIRVDEILTQDGKVIGVKADGDELTAKAVILAEGVNPILGEQLGMVKPKVSADAMAVGAKELIELPESVIKDRFNLKDDEGAAWLFAGSPSNGLMGGGFIYTNRNSISLGIVCGLHGIGESDKSVPQMLEDFKNHSLIKPLIEGGKLLEYSGHVVPEAGLNMVPKLVDHGVLITGDAAGFCLNVGYTVRGMDLAIASGEAAAKAVLAARAQQDFSAQGLSSYQSLLEESFLMKDMKLYKQLPAFMETPRIFNQYPKMVADIMHEMFIIDGTPAQPLRKTLLKHCKEVGFMNLIKDGYKGVTSI,not soluble
16,MFPYFESVATASTEFHAIEPDPHMRRQAAEQANTQATPIHIESSPAEALPYYEDTFDVVITSMVFCTIPDIESAMSEITRVLKPGGELRFFEHVIDDGWRARLQSALAPLWKRLAGGCHLTRQTGTRLVADQSFDVVEIERLNLGITPIRPFVRGRLRKRSVSSTRLEHHHHHH,not soluble
17,GNSITSATDEQPHIGNYRLQKTIGKGNFAKVKLARHVLTGREVAVKIIDKTQLNPTSLQKLFREVRIMKILNHPNIVKLFEVIETEKTLYLVMEYASGGEVFDYLVAHGRMKEKEARAKFRQIVSAVQYCHQKYIVHRDLKAENLLLDGDMNIKIADFGFSNEFTVGNKLDTFCGSPPYAAPELFQGKKYDGPEVDVWSLGVILYTLVSGSLPFDGQNLKELRERVLRGKYRIPFYMSTDCENLLKKLLVLNPIKRGSLEQIMKDRWMNVGHEEEELKPYTEPDPDFNDTKRIDIMVTMGFARDEINDALINQKYDEVMATYILLGRK,soluble
18,MATRFKGLSAFPITPADEAGRVDIEAFSALIARLDAAEVDSVGILGSTGIYMYLTREERRRAIEAAATILRGRRTLMAGIGALRTDEAVALAKDAEAAGADALLLAPVSYTPLTQEEAYHHFAAVAGATALPLAIYNNPTTTRFTFSDELLVRLAYIPNIRAIKMPLPADADYAGELARLRPKLSDDFAIGYSGDWGCTDATLAGGDTWYSVVAGLLPVPALQLMRAAQAGNAEEAKRLDATFQPLWALFKEFGSIRVIYAAANILSLTVSEPPRPILPLTSAERQRVEEALEALSALETAP,not soluble
